# Measured values reported in US20240325555A1 (LANOVA MEDICINES, published 2024).
# T1: human LIV-1 (human, UniProt Q13433 29-755)
# T1 sequence (looked up): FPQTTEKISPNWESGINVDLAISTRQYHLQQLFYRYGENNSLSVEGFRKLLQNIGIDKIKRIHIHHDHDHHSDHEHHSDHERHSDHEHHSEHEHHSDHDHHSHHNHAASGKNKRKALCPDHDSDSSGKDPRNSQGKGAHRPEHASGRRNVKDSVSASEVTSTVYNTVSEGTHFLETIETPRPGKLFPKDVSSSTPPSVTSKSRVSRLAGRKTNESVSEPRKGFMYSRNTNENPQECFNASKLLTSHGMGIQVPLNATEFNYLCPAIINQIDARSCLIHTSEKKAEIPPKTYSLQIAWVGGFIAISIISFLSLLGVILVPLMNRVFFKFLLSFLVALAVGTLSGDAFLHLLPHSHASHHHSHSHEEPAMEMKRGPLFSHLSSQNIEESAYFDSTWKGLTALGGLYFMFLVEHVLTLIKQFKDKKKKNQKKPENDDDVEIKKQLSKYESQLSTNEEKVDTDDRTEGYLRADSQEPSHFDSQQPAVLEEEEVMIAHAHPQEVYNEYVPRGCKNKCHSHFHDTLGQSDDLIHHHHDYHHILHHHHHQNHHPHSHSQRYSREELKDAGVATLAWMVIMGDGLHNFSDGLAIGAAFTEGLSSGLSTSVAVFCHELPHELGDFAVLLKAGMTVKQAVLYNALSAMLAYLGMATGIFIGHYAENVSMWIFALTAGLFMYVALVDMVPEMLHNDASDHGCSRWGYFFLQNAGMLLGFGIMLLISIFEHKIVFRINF
# Legend:
# human LIV-1 [1] = molecular target: T1, human LIV-1; assay: cell-based or functional assay
# human LIV-1 [2] = molecular target: T1, human LIV-1; assay: FACS, HEK293/H_LIV-1 cells
# Description: (§1) In this example, cell based binding of chimeric Abs on human and cyno LIV-1 over-expressing HEK 293 cells were assessed using flow cytometry.
# (§2) Briefly, cells were incubated with chimeric Abs (from 100 nM, 5 folds dilution, 8 points). After incubation at 4° C. for 60 minutes, the cells were washed with 2% FBS/PBS buffer twice, then stained with fluorescent conjugated secondary antibody at 4° C. for 30 minutes. After that the cells were washed twice and resuspended in 80 μL of 2% FBS/PBS buffer. Fluorescent signal of binding was detected using Agilent. The EC50 was calculated using the GraphPad Software (LaJolla, CA).
# cynomolgus LIV-1 [3] = molecular target: T2, cynomolgus LIV-1 (cynomolgus, UniProt A0A2K5WH46 30-741); assay: FACS, HEK293/Cyno_LIV-1 cells
# Description: as §1, §2
# human LIV-1 [4] = molecular target: T1, human LIV-1; assay: cell-based or functional assay; remark: listed apart in the source
# cynomolgus LIV-1 [5] = molecular target: T2, cynomolgus LIV-1; assay: FACS, cyno LIV-1 cells
# Target sequence in this assay (A0A2K5WH46 entry or part of it): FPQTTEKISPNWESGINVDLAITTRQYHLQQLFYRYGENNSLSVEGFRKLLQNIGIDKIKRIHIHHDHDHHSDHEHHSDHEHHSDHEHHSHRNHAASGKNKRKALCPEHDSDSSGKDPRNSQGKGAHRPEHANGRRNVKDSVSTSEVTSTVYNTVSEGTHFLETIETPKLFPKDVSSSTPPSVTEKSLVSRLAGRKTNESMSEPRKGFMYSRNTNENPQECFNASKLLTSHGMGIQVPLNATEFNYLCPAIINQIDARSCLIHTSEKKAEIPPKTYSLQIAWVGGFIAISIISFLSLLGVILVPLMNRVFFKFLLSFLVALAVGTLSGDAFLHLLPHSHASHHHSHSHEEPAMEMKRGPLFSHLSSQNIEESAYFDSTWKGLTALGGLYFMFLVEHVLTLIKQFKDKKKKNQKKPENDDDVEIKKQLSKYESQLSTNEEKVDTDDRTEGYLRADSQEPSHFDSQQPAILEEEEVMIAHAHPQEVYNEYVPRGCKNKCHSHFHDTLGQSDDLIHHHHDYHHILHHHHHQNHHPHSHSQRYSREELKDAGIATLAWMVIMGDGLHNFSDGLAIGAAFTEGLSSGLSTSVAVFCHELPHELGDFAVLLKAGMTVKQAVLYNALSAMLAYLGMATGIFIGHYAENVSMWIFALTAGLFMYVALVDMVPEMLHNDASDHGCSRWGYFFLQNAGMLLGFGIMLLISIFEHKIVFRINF
# human LIV-1 [6] = molecular target: T1, human LIV-1; assay: FACS, human LIV-1 cells
# Description: (§3) In this example, cell based binding of humanized antibodies (hu Abs) on human LIV-1-expressing cells were assessed using flow cytometry.
# (§4) Cell based binding of hu-Abs on human LIV-1 expressing cells were assessed using flow cytometry. Briefly, the HEK293/H_LIV-1 cells were incubated with hu-Abs (from 100 nM, 6 folds dilution, 8 points). After incubation at 4° C. for 60 minutes, the cells were washed with FACS buffer twice, then stained with fluorescent conjugated secondary antibody at 4° C. for 30 minutes. After that the cells were washed twice and analyzed by flow cytometry.
# human LIV-1 [7] = molecular target: T1, human LIV-1; assay: FACS, HEK293/H_LIV-1 cells; remark: listed apart in the source
# Description: as §3, §4
# cynomolgus LIV-1 [8] = molecular target: T2, cynomolgus LIV-1; assay: FACS, HEK293/Cyno_LIV-1 cells; remark: listed apart in the source
Binder,EC50 (human LIV-1 [2]) [nM],Top (MFI) (human LIV-1 [2]),EC50 (cynomolgus LIV-1 [3]) [nM],Top (MFI) (cynomolgus LIV-1 [3]),EC50 (cynomolgus LIV-1 [5]) [nM],Top (MFI) (cynomolgus LIV-1 [5]),EC50 (human LIV-1 [6]) [nM],Top (MFI) (human LIV-1 [6]),EC50 (human LIV-1 [7]) [nM],Top (MFI) (human LIV-1 [7]),EC50 (cynomolgus LIV-1 [8]) [nM],Top (MFI) (cynomolgus LIV-1 [8]),further results
"50H12B3 (antibody, V domains shown, Tested as chimeric antibody) VH: QVQLKQSGPGLVQPSQSLSITCTVSGFSLTSYGVHWVRQSPGKGLEWLGVIWTGGTTDYNAAFKSRLSISKDNSKSQVFFKMNSLQANDTAIYYCARGPSSYWGQGTLVTVSA VL: DIVMTQSQKFMSTSVGDRVSVTCKASQNVDTNVVWYQQKPGQSPKALIHSTSYRYSGVPDRFTGSGSGTDFTLTISNVQSEDLAEYFCQQYNNYPWTFGGGTKLEIK",0.23,63000,0.21,35900,–,–,–,–,–,–,–,–,ADCC reporter EC50 (human LIV-1 [1]): 0.2 nM; ADCC reporter Top (RFU) (human LIV-1 [1]): 95600 RFU
"56B3E6 (antibody, V domains shown, Tested as chimeric antibody) VH: EVQLQQSGAELVRSGASVKLSCTASGFNIKDYYIHWVKQRPEQGLEWIGWIDPENDDTEYAPKFQGKATMTADTSSNTAYLHLSSLTSEDTAVYYCPHGGGFRVFDSWGQGTTLTVSS VL: DVLMTQTPLSLPVSLGDQASISCRSSQDIVHSNGNTYLEWYLQKPGQSPKLLIYKVSNRFSGVPDRFSGSGSGTDFTLKISRVEAEDLGVYYCFQGSHVPWTFGGGTKLEIK",0.13,13300,0.21,9280,–,–,–,–,–,–,–,–,ADCC reporter EC50 (human LIV-1 [1]): 1.3 nM; ADCC reporter Top (RFU) (human LIV-1 [1]): 52300 RFU; Internalization EC50 (human LIV-1 [4]): 5 nM; Internalization Top (RFU) (human LIV-1 [4]): 388000 RFU
"290F10G10.p1.Z5 (antibody, V domains shown) VH: EVQLVQSGAEVKKPGASVKVSCKASGYTFTSYWIHWVRQAPGQGLEWMGTIYPGDADTRSTQKFKDRVTVTADKSTSTVYMELSSLRSEDTAVYYCARSLIHDDYDKYYFDYWGQGTTVTVSS VL: DIQMTQSPSSLSASVGDRVTITCKARQDINKYIAWYQQKPGKAPKLLIHYTSILQPGIPSRFSGSGSGRDYTFTISSLQPEDIATYYCLQYDYFFTFGGGTKVEIK",–,–,–,–,0.5,7370,0.32,7390,–,–,–,–,–
"290F10G10.p1.Z1 (antibody, V domains shown) VH: EVQLVQSGAEVKKPGASVKVSCKASGYTFTSYWIHWVRQAPGQGLEWMGTIYPGDADTRSTQKFKDRVTMTADTSTSTVYMELSSLRSEDTAVYYCARSLIHDDYDKYYFDYWGQGTTVTVSS VL: DIQMTQSPSSLSASVGDRVTITCKARQDINKYIAWYQQKPGKAPKLLIYYTSILQPGVPSRFSGSGSGRDYTFTISSLQPEDIATYYCLQYDYFFTFGGGTKVEIK",–,–,–,–,0.85,7190,0.56,7540,–,–,–,–,–
"290F10G10.p1.Z3 (antibody, V domains shown) VH: EVQLVQSGAEVKKPGASVKVSCKASGYTFTSYWIHWVRQAPGQGLEWMGTIYPGDADTRSTQKFKDRVTMTADTSTSTVYMELSSLRSEDTAVYYCARSLIHDDYDKYYFDYWGQGTTVTVSS VL: DIQMTQSPSSLSASVGDRVTITCKARQDINKYIAWYQHKPGKGPKLLIHYTSILQPGIPSRFSGSGSGRDYTFTISSLQPEDIATYYCLQYDYFFTFGGGTKVEIK",–,–,–,–,0.4,6750,0.27,7600,–,–,–,–,–
"290F10G10.p1.Z4 (antibody, V domains shown) VH: EVQLVQSGAEVKKPGASVKVSCKASGYTFTSYWIHWVRQAPGQGLEWMGTIYPGDADTRSTQKFKDRVTVTADKSTSTVYMELSSLRSEDTAVYYCARSLIHDDYDKYYFDYWGQGTTVTVSS VL: DIQMTQSPSSLSASVGDRVTITCKARQDINKYIAWYQQKPGKAPKLLIYYTSILQPGVPSRFSGSGSGRDYTFTISSLQPEDIATYYCLQYDYFFTFGGGTKVEIK",–,–,–,–,0.34,7140,0.24,7790,–,–,–,–,–
"69B3D6 (antibody, V domains shown, Tested as chimeric antibody) VH: QVQLQQSGPELVKPGASVRISCKASGYTFTSYHMHWVKQRPGQGLEWIGWIYPGNVKNQSNEKFKGKATLTADKSSSTAYMQLSSLTSEDSAVYFCARSDITRAFFAYWGQGTLVTVSA VL: DVLMTQTPLSLPVSLGDQASISCRSSQSIVHSNGNTYLEWYLQKPGQSPKLLIYKVSNRFSGVPDRFSGSGSGTDFTLKISRVEAEDLGVYYCFQGSHVPYTFGGGTKLEIK",0.18,11500,0.17,6600,–,–,–,–,–,–,–,–,ADCC reporter EC50 (human LIV-1 [1]): 25.3 nM; ADCC reporter Top (RFU) (human LIV-1 [1]): 47200 RFU
"72B12F1 (antibody, V domains shown, Tested as chimeric antibody) VH: EVQLQQSGAELVKPGASVKLSCTASGFNIKDTYMHWVKQRPEQGLEWIGRIDPANGNTKNDPRFQGKATITADTSSNTAYLQLSRLTSEDTAVYYCAGGGITTVVPDHWGQGTTLTVSS VL: DVVMTQTPLSLPVSLGDQASISCRSSQSLVHSNGNTYLQWYLQKPGQSPKLLIYKVSNRFSGVPDRFSGSGSGTDFTLKISRVEAEDLGVYFCSQSTHVPYTFGGGTKLEIK",0.79,10700,0.36,7470,–,–,–,–,–,–,–,–,Internalization EC50 (human LIV-1 [4]): 7.2 nM; Internalization Top (RFU) (human LIV-1 [4]): 353000 RFU
"124H4D11.p2.z1 (antibody, V domains shown) VH: QVQLVQSGAEVVKPGASVKVSCKASGFNIKDYYMHWVRQAPGQGLEWIGWIDPENDDTEYDPKFQGRVTMTADTSTSTVYMELSSLRSEDTAVYYCAARYYAFDYWGQGTMVTVSS VL: DVQMTQSPSSLSASVGDRVTITCRSSQSIVHSNANTYLEWYLQKPGKSPKLLIYKVSNRFSGVPDRFSGSGSGTDFTLTISSLQPEDFATYYCFQGSQVPPTFGQGTRLEIK",–,–,–,–,–,–,–,–,0.89,16800,0.29,8200,–
"124H4D11.p2.z3 (antibody, V domains shown) VH: QVQLVQSGAEVVKPGASVKVSCKASGFNIKDYYMHWVRQAPGQGLEWIGWIDPENDDTEYDPKFQGRVTMTADTSTSTVYMELSSLRSEDTAVYYCAARYYAFDYWGQGTMVTVSS VL: DVLMTQSPSSLSVSVGDRATISCRSSQSIVHSNANTYLEWYLQKPGKSPKLLIYKVSNRFSGVPDRFSGSGSGTEFTLTISSVQPEDFGVYYCFQGSQVPPTFGGGTRLEIK",–,–,–,–,–,–,–,–,0.12,19400,0.04,8300,–
"124H4D11.p2.z7 (antibody, V domains shown) VH: QVPLVQSGAEVVKPGASVKVSCKASGFNIKDYYMHWVRQAPGQGLEWIGWIDPENDDTEYDPKFQGRATMTADTSTSTAYMELSSLRSEDTAVYYCNARYYAFDYWGQGTTVTVSS VL: DVLMTQSPSSLSASVGDRVTITCRSSQSIVHSNANTYLEWYLQKPGKSPKLLIYKVSNRFSGVPDRFSGSGSGTEFTLTISSVQPEDFAVYYCFQGSQVPPTFGQGTRLEIK",–,–,–,–,–,–,–,–,37.2,15800,1.48,7750,–
"124H4D11.p2.z12 (antibody, V domains shown) VH: QVPLVQSGAEVVKPGASVKLSCKASGFNIKDYYMHWVKQAPGQGLEWIGWIDPENDDTEYDPKFQGRATMTADTSTSTAYLELSSLRSEDTAVYYCNARYYAFDYWGQGTTVTVSS VL: DVLMTQSPSSLSASVGDRVTITCRSSQSIVHSNANTYLEWYLQKPGKSPKLLIYKVSNRFSGVPDRFSGSGSGTEFTLTISSVQPEDFAVYYCFQGSQVPPTFGQGTRLEIK",–,–,–,–,–,–,–,–,–,15800,3.8,7570,–
"124H4D11.p2.z13 (antibody, V domains shown) VH: QVPLVQSGAEVVKPGASVKLSCKASGFNIKDYYMHWVKQAPGQGLEWIGWIDPENDDTEYDPKFQGRATMTADTSTSTAYLELSSLRSEDTAVYYCNARYYAFDYWGQGTTVTVSS VL: DVLMTQSPSSLSVSVGDRATISCRSSQSIVHSNANTYLEWYLQKPGKSPKLLIYKVSNRFSGVPDRFSGSGSGTEFTLTISSVQPEDFGVYYCFQGSQVPPTFGGGTRLEIK",–,–,–,–,–,–,–,–,7.48,17000,–,9030,–
